Assay results: the DeepSol protein solubility set

Test: soluble on expression in E. coli; label from the status in PepcDB or PDB records
In the case of “MSSKSTKRAKIEDPKDNVFMVEKVLDKRTGKAGRDEFLIQWQGFPESDSSWEPRENLQCVEMLDEFEREFSKREKPIRKRHSQKPEPSEDQADPEEDKDEKKETNQNDKFSLEGKQLKCIVGLTKGPGELHFLCKFSDDTARLLPAKEVNSRYPSQVIRYYESKLTIQDPKADEL”, the “soluble on expression in E. coli” value is reported as “not soluble”.
For “MSSNFIVESCSVDSEEGVKLHTRIFKPRNEGEEVSDDENLVIVLVHPFSLLGGCQALLKGIASELASKGFKSVTFDTRGAGKSTGRATLTGFAEVKDVVAVCRWLCQNVDAHRILLVGSSAGAPIAGSAVEQVEQVVGYVSLGYPFGLMASILFGRHHKAILSSPKPKLFVMGTQDGFTSVSQLKKKLKSAVGRTETHLIEGVSHFQMEGPEYDSQVTDIICKFISSL”, the “soluble on expression in E. coli” value was “not soluble”.
With “MSSNLIRFVGNHDIASEGKFLFEILSQLRNFGVGRLVTKNEWTRKWPNNPSYMKILRAEPGMDRWLFEGKVYAEWVFRGKNLGVYEFSKDLNRSDWQLVHKHQEKSYTSSTTPMQDLVLPDSFPLPPLQVHLSQKSARKNGLDEKTVSRRAPLTLSVDPEFQHLKPFIKQEAPSTKSVSIYEEVDKNALLDLYGNELPVKVEAWNAGPAMFQPRFNATTMRVEEQPPK” the “soluble on expression in E. coli” value was “not soluble”.
With “MSSPTSLEEDGDIKLKTRFQGQVVVLYARPPLILDDFFALLKDACKQHKKQDITVKWIDEDGDPISIDSQMELDEAVRCLNSSQEAELNIHVFVGKPELPGLPCQGEDKTVYRRGARRWKKIYLYNGHRFQAKRLNRRIQCFICHDYIWGIGRQGFRCVDCRLCVHKKCHRHVRTHCGQALQGPNIIPMAPASGSLKGARSNTSSSTTRSGGGIDNGAFHEHEIESPGSTSHDASRAMNGNGSSKWAVSLNDFRLLTVIGRGSYAKVVQAEHVSTRQIYAIKIIKKEMFNEDEDIDWVQTEKSVFEAASNYPFLVGLHSCFQTESRLFFVIEFVPGGDLMFHMQQQRKLPEEHARFYSGEIILALHFLHSRGIIYRDLKLDNVLIDAEGHIKLTDYGMCKENIKDGDLTSTFCGTPNYIAPEILRGDEYGFSVDWWALGVLMFEMMAGRSPFDIVGMQNSEENTEDYLFQIILERQIRIPRSLSVRASGILKGFLNKDPTERLGCKLDINEGLRDMKEHQFFRGFIDWEALEQKAVAPPYHPAVESDRDLTHFDHQFTDELPQLSPDNPDVIARIDQSEFDGFEYVNPLQMSREDSV” the “soluble on expression in E. coli” value was “not soluble”.
With “MSSQELVTLNVGGKIFTTRFSTIKQFPASRLARMLDGRDQEFKMVGGQIFVDRDGDLFSFILDFLRTHQLLLPTEFSDYLRLQREALFYELRSLVDLLNPYLLQPRPALVEVHFLSRNTQAFFRVFGSCSKTIEMLTGRITVFTEQPSAPTWNGNFFPPQMTLLPLPPQRPSYHDLVFQCGSDSTTDNQTGVRYVSIKPDNRKLANGTNVLGLLIDTLLKEGFHLVSTRTVSSEDKTECYSFERIKSPEVLITNETPKPETIIIPEQSQIKK” the “soluble on expression in E. coli” value was “soluble”.
With “MSSQNANLMREVRLFENHSEREQMENLSELFAVLNALEHLEKMFSRDHVSADEYKSECFKLIDQYKVTMRLVHGATSIEDFAKKYRLHCPAAIERIREGRPITVKDDQGNVLKHIASIVEQFITFLDALRLNTRAVDDLYPGLDDLYNAINTTSRVPIDAIVTTKVKKWHDRLSSMAASDEISDEDARQMIFDVESAYQAFNKALNELKH” the “soluble on expression in E. coli” value was “soluble”.
With “MSSSPTSSSSGSPSSHGHRSETEKQRRDDTNDLLNEFKKIVQKSESEKLSKEEVLFRIVKLLSGIQLHHESFSTSPGPIRSIKKIKSDREQVRRNKRVAAYRELRKFIALNNLSSSEEIDKMENLKVLEIIFEVIRGKSITCTVPCLPFPILPFLPVFPVYSPLVFNSYNQFSLYPPHMPTVQIPIVPSSSFEIDALEIEENEKDIDIVG” the “soluble on expression in E. coli” value was “soluble”.
For “MSSTKKDIKVYVNYRDEYAEPKIISALKNSGKELTFTNSAKEANFQWAQYEDIDFDEVYKNPKTKLCCSYVIRKALIRKEYLWRTVITYLAKHPDSILSKSVPEAYSLELDYAEFLDDSLMEAYELRQELEENATKNISEKQWYILKPSMCDRAQGIRLFSTIEELQAIFDSFDDEESESEEAGLEEKGDITVAFNNKIVISQIRNFLVQKYISKPLLLDHRKFHIRAYVLATGALSVYLFNEMLCLLARDKYKKPTPDPDLLFSHLSNTCLQGDNVEQSSIRDFWNTSIENKDDIFKSILNIIGDVFEAAATTQGIHFQPLENCFEIFGVDFLVDCESQVYLLEVNSYPDFKQTGKNLSNIIENLFSAVVETAIIPFFESSTKRNVDSKLTLAKKLQLFGFR”, the “soluble on expression in E. coli” value was “soluble”.
For “MSSVYDFNVKNANGDDVSLSDYKGKVLIIVNVASQCGLTNKNYTQLKELLDVYKKDGLEVLAFPCNQFAGQEPSCEIDIQAFVADKFKFEPTLFQKIDVNGDKQSPLFKFLKNEKGGFMFDAIKWNFTKFLVGRDGKIIKRFGPTTDPKDMEKDIKEALGEKL”, the “soluble on expression in E. coli” value was “not soluble”.
With “MSTAPLENAPTPGGARFTKIYDEDGEHIITRDEHKGLEWTAHALDSRHAAGFGNLLRRSGAKKVCRELTLGGHTDWRVPEIEEAMSIGLVDTCWPANETWFWTCTPCEQEPENKAWAFEFGTGNKRIEDRRIWLHVRAVRGQMRTDATATPKAGESLEHHHHHH” the “soluble on expression in E. coli” value was “soluble”.
With “MSTATKVGAVIITMGNRPDELRALLDSVAKQDGDRVEVVVVGNGSPVPDVPAGVRTVELPENLGIPGGRNVGIEAFGPGGTDVDILLFLDDDGLLAHHDTAELCRQAFTADPELGIISFRIADPDTGETQRRHVPRLRASDPMRSSRVTTFLGGANAVRTKVLAEVGGLPDEFFYAHEETDLAWRALDAGWMIDYRSDMVLYHPTTAPSRHAVYHRMVARNRVWLARRNLPAPLVPVYLGVWLLLTLARRPSGPALKAWFGGFKEGWTSPCGPRRPMKWRTVWRLTRLGRPPVILEHHHHHH” the “soluble on expression in E. coli” value was “not soluble”.
In the case of “MSTDNLLQPKLIEATLGDYPVIQNMARFYVYDMSRYCGFISEEWTCPPDGLYESYDFKIYFTDPERKAFLIQIDNELAGFALLNKFGIQAVDWSMGEFFILAKFQGKGIGQSVAHQLWRTHPGEWEISVIPENIPALSFWRQAVMTYTL”, the “soluble on expression in E. coli” value is reported as “not soluble”.
In the case of “MSTEHLTPELLRLADSTPGFMPEDEGTALHEAAMQYLPPGGVGVEIGTYCGRSTIYLGAAAKARAARIVTIDHHHGSEEHQPGWEYHEPAFVDPHTGLLDTVGRFRHTMADSGLEDYVVGVLGRSSTVATFWRTPVHFVFIDGGHTSEAASADLEGWAPWVNVGGALVIHDVFPDPADGGRPPFEIYERALATGQFKETSVTGSLRVLERVGGQTGEPLA”, the “soluble on expression in E. coli” value is reported as “not soluble”.
In the case of “MSTEIKTQVVVLGAGPAGYSAAFRCADLGLETVIVERYNTLGGVCLNVGCIPSKALLHVAKVIEEAKALAEHGIVFGEPKTDIDKIRTWKEKVINQLTGGLAGMAKGRKVKVVNGLGKFTGANTLEVEGENGKTVINFDNAIIAAGSRPIQLPFIPHEDPRIWDSTDALELKEVPERLLVMGGGIIGLEMGTVYHALGSQIDVVEMFDQVIPAADKDIVKVFTKRISKKFNLMLETKVTAVEAKEDGIYVTMEGKKAPAEPQRYDAVLVAIGRVPNGKNLDAGKAGVEVDDRGFIRVDKQLRTNVPHIFAIGDIVGQPMLAHKGVHEGHVAAEVIAGKKHYFDPKVIPSIAYTEPEVAWVGLTEKEAKEKGISYETATFPWAASGRAIASDCADGMTKLIFDKESHRVIGGAIVGTNGGELLGEIGLAIEMGCDAEDIALTIHAHPTLHESVGLAAEVFEGSITDLPNPKAKKK”, the “soluble on expression in E. coli” value is reported as “soluble”.
In the case of “MSTENAHLQKEDIVIESWLHKKGEHIRNWRPRYFILFRDGTLLGFRSKPKEDQPLPEPLNNFMIRDAATVCLDKPRPNMFIVRCLQWTTVIERTFYADSADFRQMWIEAIQAVSSHNRLKENAGNTSMQEEDTNGNPSGESDVNMDATSTRSDNDFESTVMNIDEPEEVPRKNTVTMDDFDFLKVLGQGTFGKVILCREKSSDKLYAIKIIRKEMVVDRSEVAHTLTENRVLYACVHPFLTLLKYSFQAQYHICFVMEFANGGELFTHLQRCKTFSEARTRFYGSEIILALGYLHHRNIVYRDMKLENLLLDRDGHIKITDFGLCKEEIKYGDKTSTFCGTPEYLAPEVIEDIDYDRSVDWWGVGVVMYEMMCGRLPFSAKENGKLFELITTCDLKFPNRLSPEAVTLLSGLLERVPAKRLGAGPDDAREVSRAEFFKDVDWEATLRKEVEPPFKPNVMSETDTSFFDRVRYVSILLKVSEAI”, the “soluble on expression in E. coli” value is reported as “not soluble”.
With “MSTESSHQVHTATVPVRWTDFDRFGHVTNSAYVDLAQEARTVWANDNFAVKGHQIPAVFVRHIEVDYLRPIMPSTSQVVVETEVVHIGNTSFTTRQHLKDGEGHVCATVIAVQVAVDMLTTRPRAIAAHELQVLTQFAASTQQESEQ” the “soluble on expression in E. coli” value was “not soluble”.
With “MSTILSLAPQNVWKHFYSLTQIPRPSGHMEKVTEFLINFGKGLGLESFVDEAGNVIIRKPATPGMENRKGVILQAHMDMVPQKNNDTVHDFEKDPIETYIDGDWVKAKGTTLGADNGLGVAAIMAVLEANDLKHGPLEALITKDEETGMYGAFGLKPGTVNGEILLNLDSEDEGELYIGCAGGMDVTATLEYKEVAPEEGDVAVKVSLKGLRGGHSGLEINEGRANANKLLVRFVREAVASYEARLVSWDGGNMRNAIPREACAVLAIPAENEEELLGLVKYCEDLFNEEFSAIETPISFTAERVELPAGEVPEEIQDNLIDAIFACQNGVTRMIPTVPDTVETSSNLAIITIGGGKAEIKILARSSSDSMKEYLTTSLESCFSMAGMKVEMTGGYSGWQPNVESPILHAMKESYKQQFGVEPAVKVIHAGLECGIIGAIIPGLDMISFGPTLRSPHSPDERALIPTVQKFYDFLVATLAQTPTKLEHHHHHH” the “soluble on expression in E. coli” value was “soluble”.
With “MSTLRLLISDSYDPWFNLAVEECIFRQMPATQRVLFLWRNADTVVIGRAQNPWKECNTRRMEEDNVRLARRSSGGGAVFHDLGNTCFTFMAGKPEYDKTISTSIVLNALNALGVSAEASGRNDLVVKTVEGDRKVSGSAYRETKDRGFHHGTLLLNADLSRLANYLNPDKKKLAAKGITSVRSRVTNLTELLPGITHEQVCEAITEAFFAHYGERVEAEIISPNKTPDLPNFAETFARQSSWEWNFGQAPAFSHLLDERFTWGGVELHFDVEKGHITRAQVFTDSLNPAPLEALAGRLQGCLYRADMLQQECEALLVDFPEQEKELRELSAWMAGAVR” the “soluble on expression in E. coli” value was “soluble”.
For “MSTNKRRTIQIEITEEHFKDLEKALEALKGTQLPFSTTVEQFVELILSNYVATSNKISNLAESGFDVASIQQELEKIGSAAGADDALKSFLDELLKTSQKSFSNTKDGKKNDDDNNSSSKS”, the “soluble on expression in E. coli” value was “soluble”.
With “MSTPFGLDLGNNNSVLAVARNRGIDIVVNEVSNRSTPSVVGFGPKNRYLGETGKNKQTSNIKNTVANLKRIIGLDYHHPDFEQESKHFTSKLVELDDKKTGAEVRFAGEKHVFSATQLAAMFIDKVKDTVKQDTKANITDVCIAVPPWYTEEQRYNIADAARIAGLNPVRIVNDVTAAGVSYGIFKTDLPEGEEKPRIVAFVDIGHSSYTCSIMAFKKGQLKVLGTACDKHFGGRDFDLAITEHFADEFKTKYKIDIRENPKAYNRILTAAEKLKKVLSANTNAPFSVESVMNDVDVSSQLSREELEELVKPLLERVTEPVTKALAQAKLSAEEVDFVEIIGGTTRIPTLKQSISEAFGKPLSTTLNQDEAIAKGAAFICAIHSPTLRVRPFKFEDIHPYSVSYSWDKQVEDEDHMEVFPAGSSFPSTKLITLNRTGDFSMAASYTDITQLPPNTPEQIANWEITGVQLPEGQDSVPVKLKLRCDPSGLHTIEEAYTIEDIEAGSDTKTVKKDDLTIVAHTFGLDAKKLNELIEKENEMLAQDKLVAETEDRKNTLEEYIYTLRGKLEEEYAPFASDAEKTKLQGMLNKAEEWLYDEGFDSIKAKYIAKYEELASLGNIIRGRYLAKEEEKKQAIRSKQEASQMAAMAEKLAAQRKAEAEKKEEKKDTEGDVDMD” the “soluble on expression in E. coli” value was “soluble”.
In the case of “MSTSCFPDVPLELTTRHPRPLQACPERHSQSTHDSLGIWVKRREEKPMERMSKDYDIVQIPRDVGYSDLPRKMEVGKPFEINGSVYVCEKRGGEIMKICSEDSGRTGVPVLNKGFYVVRRM”, the “soluble on expression in E. coli” value is reported as “not soluble”.
